Laboratory results reported in patent EP4631972A1, “SITE-SPECIFIC COUPLED PEGYLATED INTERLEUKIN-2 MUTANT WITH RECEPTOR AFFINITY PREFERENCE AND USE THEREOF” (priority 2022, dated 2024).

How the values were obtained:
[1] = mouse, in vivo, sc, 1 mg/kg
Protocol: (§3) Balb/c mice were purchased, with 4 mice in each group. Each IL-2 mutant to be tested was administered subcutaneously once at a dose of 1 mg/kg. Blood was collected from the orbit at different time points after administration, and the plasma was separated and the plasma drug concentration was detected by ELISA. The main pharmacokinetic parameters were calculated, and C-T curve was plotted.

Treg cells [2] = experiment: Pharmacodynamic (PD) study in mice, peripheral Treg cells; assay type: in vivo, Balb/c mice; details: 1 mg/kg s.c. single administration
Protocol: In this example, the pharmacodynamics (PD) of each IL-2 mutant obtained in Example 6 was studied in mice after a single administration to mice. SPF grade Balb/c mice were purchased and randomly divided into groups according to body weight, with 3 mice in each group. Drug administration started on the day of grouping. The dosing and grouping information is shown in Table 9, where G1-G5 were administered once, G6 and G7 were administered once a day, for a total of three doses. 30 µl of blood was taken from each group of mice, for PEGylated IL2 mutants and the negative control, blood was collected on day 0 (pre-administration), day 2, 3, 4, 5, 6 and 7 (only for G3, G4 and G5), and for IL2 and IL2-N88R, blood was collected on day 0 (pre-administration), day 1, 2 and 3. The number of each cell subpopulation was measured by flow cytometry. Antibodies against the staining marker used in flow cytometry are shown in Table 10, and the gating settings are shown in Table 11. Table 9 Dosing and grouping table for single-dose PD study in mice

[3] = Pharmacokinetic study in mice, single administration, plasma concentration by ELISA; details: 1 mg/kg s.c. single administration
Protocol: as §3

[4] = Pharmacokinetic study in cynomolgus monkeys; details: cynomolgus monkey
Protocol: Blood was collected before and after administration (4h, 8h, 24h, 48h, 72h, 120h, 168h, 240h, 336h) in the first cycle and after administration (8h, 24h, 48h, 72h, 120h, 168h, 240h) in the second cycle to detect plasma drug concentration.

Treg cells [5] = experiment: P-STAT5 activation in Treg cells of human PBMCs (flow cytometry); assay type: cell-based; details: P-STAT5 MFI in CD3+/CD4+/CD25+ cells of human PBMCs, 30 min stimulation
Protocol: In the example, the activation effect of each mutant prepared in Example 6 on P-STAT5 in different cell subsets (Tregs, CD8+T cells, NK cells) from human PBMCs (Miaoshun Biotechnology) was detected.
Human PBMC cells were thawed and resuspended to 1.5×10^6 cells/ml in RPMI1640 medium containing 10% FBS. 100 µl was added to each well of a V-bottom 96-well culture plate. Each IL-2 mutant prepared in Example 6 was diluted 10-fold in series: 1000 nM was used as the working concentration for the first well, and then 100 µl/well of each serial dilution was added to each cultured cell, stimulated at 37°C for 30 min, and the reaction was terminated on ice. The cells were treated with a commercial fixative and permeabilization agent (BD biosciences 558049 & 558050), and stained with antibodies against CD3, CD4, CD25, and CD8 according to conventional methods. P-STAT5 antibody staining was also performed (Table 7) to detect the mean fluorescence intensity (MFI) of P-STAT5 in CD3+/CD4+/CD25+ (Treg cells) and CD8+/CD3+ cells ([…]) by flow cytometry.

Treg cells [6] = experiment: Pharmacodynamic study in cynomolgus monkeys, peripheral Treg cells; assay type: in vivo; details: doses ≤400 µg/kg
From the text: For information on administration and grouping, see Table 14.

IL-2αβγ triple receptor = molecular target: T1, IL-2αβγ triple receptor (Homo sapiens, UniProt P01589+P14784+P31785); experiment: STAT5 reporter gene assay, activation of IL-2αβγ triple receptor in 293EC18/αβγ/JAK3/STAT5 cells; assay type: cell-based; details: Example 3, Table 2 and Figure 3
T1 construct: Uniprot P01589 1Met-551Ile constructed into plasmid pcDNA3.1/zeo; Uniprot P14784 1Met-551Val constructed into plasmid pcDNA3.1(+); Uniprot P31785 1Met-551Thr was constructed into plasmid pcDNA3.1/zeo; expressed in transfected cells; host or cells: 293EC18 cells, transient co-transfection with pCMV/JAK3 and PGL4.52/STAT5RE
T1 sequence (P01589 22-272): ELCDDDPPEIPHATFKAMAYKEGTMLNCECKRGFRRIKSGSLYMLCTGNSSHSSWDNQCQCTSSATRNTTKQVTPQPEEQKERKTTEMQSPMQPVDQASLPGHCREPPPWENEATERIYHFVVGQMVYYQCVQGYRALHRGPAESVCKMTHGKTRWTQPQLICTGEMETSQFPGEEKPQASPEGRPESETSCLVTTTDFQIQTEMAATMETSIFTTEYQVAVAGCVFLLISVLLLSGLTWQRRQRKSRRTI
T1 sequence (P14784 27-551): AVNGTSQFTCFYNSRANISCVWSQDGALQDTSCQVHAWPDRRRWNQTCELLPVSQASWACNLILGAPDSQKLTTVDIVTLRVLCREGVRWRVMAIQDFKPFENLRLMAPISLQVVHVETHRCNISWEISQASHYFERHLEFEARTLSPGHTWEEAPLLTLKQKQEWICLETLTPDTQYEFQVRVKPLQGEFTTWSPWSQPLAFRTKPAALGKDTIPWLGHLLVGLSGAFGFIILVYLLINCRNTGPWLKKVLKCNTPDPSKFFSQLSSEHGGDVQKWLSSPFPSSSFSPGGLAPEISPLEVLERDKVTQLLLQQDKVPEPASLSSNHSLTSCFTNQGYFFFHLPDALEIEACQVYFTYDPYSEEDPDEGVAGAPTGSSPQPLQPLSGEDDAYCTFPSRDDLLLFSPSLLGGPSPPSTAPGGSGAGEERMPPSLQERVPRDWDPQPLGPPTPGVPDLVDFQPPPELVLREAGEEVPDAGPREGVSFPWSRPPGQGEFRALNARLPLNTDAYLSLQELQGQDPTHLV
T1 sequence (P31785 23-369): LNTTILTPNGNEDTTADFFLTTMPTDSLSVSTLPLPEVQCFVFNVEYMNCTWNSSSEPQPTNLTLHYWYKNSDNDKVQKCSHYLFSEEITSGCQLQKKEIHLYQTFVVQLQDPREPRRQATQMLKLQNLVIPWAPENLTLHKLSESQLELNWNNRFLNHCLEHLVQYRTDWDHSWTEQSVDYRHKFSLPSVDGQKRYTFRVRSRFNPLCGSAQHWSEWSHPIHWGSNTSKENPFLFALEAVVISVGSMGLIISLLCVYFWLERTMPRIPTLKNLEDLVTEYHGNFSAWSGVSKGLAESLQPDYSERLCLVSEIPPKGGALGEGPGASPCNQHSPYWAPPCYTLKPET
Protocol: (§1) Since the binding of IL-2 to the β and γ subunits of its receptor induces STAT5 phosphorylation, which subsequently leads to dimerization and translocation into the nucleus to promote target gene transcription, this example evaluates the ability of the mutant IL-2 polypeptides to induce signaling through the IL-2 receptor by measuring STAT5 phosphorylation.
Adherent 293EC18 cells were cultured to about 90% confluence using conventional methods. After trypsin digestion, the cells were resuspended in cell culture medium to 4×10^5 cells/ml and 50 µl/well were added to two 96-well cell culture plates. After incubation at 37°C for 48 h, the supernatant was aspirated and fresh culture medium was added. […]
Each IL2 mutant was diluted 4-fold in a gradient manner using PBS buffer, with a total of 11 dilutions and a starting concentration of 65.2 nM. […] Bio-Lite Luciferase Assay System reagents that have been mixed and equilibrated to room temperature were added to the cell culture plates to be tested at 100 µl/well, placed on a microplate shaker at 450 rpm to mix for 2 minutes, then allowed to stand at room temperature for 3 minutes, and the chemiluminescence value was detected with an enzyme plate reader.
(§2) The logarithm of the final concentration of each IL-2 mutant sample was used as the X-axis, and the chemiluminescence detection results were used as the Y-axis for plotting. Data were analyzed using the four-parameter logistic regression model in GraphPad Prism 9. Table 2 EC50 values for the activation of the IL-2αβγ triple receptor by PEG-IL-2 mutants as determined by a reporter gene assay.
According to the method of Example 3, each polyethylene glycol-modified mutant obtained in this example was assessed for the binding preference to the IL2 receptors by a reporter assay. Table 4 EC50 values for the activation of the IL-2αβγ triple receptor by PEG-IL-2 mutants as determined by a reporter gene assay. […]

IL-2βγ dual receptor = molecular target: T2, IL-2βγ dual receptor (Homo sapiens, UniProt P14784+P31785); experiment: STAT5 reporter gene assay, activation of IL-2βγ dual receptor in 293EC18/βγ/JAK3/STAT5 cells; assay type: cell-based
T2 construct: Uniprot P14784 1Met-551Val was constructed into plasmid pcDNA3.1(+); Uniprot P31785 1Met-551Thr was constructed into plasmid pcDNA3.1/zeo; expressed in transfected cells; host or cells: 293EC18 cells, transient co-transfection with pCMV/JAK3 and PGL4.52/STAT5RE
T2 sequence (P14784 27-551): T1 sequence (P14784 27-551)
T2 sequence (P31785 23-369): T1 sequence (P31785 23-369)
Protocol: as §1
Adherent 293EC18 cells were cultured to about 90% confluence using conventional methods. After trypsin digestion, the cells were resuspended in cell culture medium to 4×10^5 cells/ml and 50 µl/well were added to two 96-well cell culture plates. After incubation at 37°C for 48 h, the supernatant was aspirated and fresh culture medium was added. According to the manufacturer's method, four plasmids, pcDNA3.1(+)/CD122 (constructed by Nanjing Novoacine Biotechnology Co., Ltd, Uniprot P14784 1Met-551Val was constructed into plasmid pcDNA3.1(+)), pcDNA3.1/puro/CD132 (constructed by Nanjing Novoacine Biotechnology Co., Ltd, Uniprot P31785 1Met-551Thr was constructed into plasmid pcDNA3.1/zeo), pCMV/JAK3 (Sino Biological), and PGL4.52/STAT5RE (Promega) were transiently transfected into 293EC18 cells using a cationic transfection reagent (ExFect Transfection Reagent, Vazyme). The obtained cells were named 293EC18/βγ/JAK3/STAT5 cells. Alternatively, five plasmids, pcDNA3.1/zeo/CD25 (constructed by Nanjing Novoacine Biotechnology Co., Ltd, Uniprot P01589 1Met-551Ile constructed into plasmid pcDNA3.1/zeo), pcDNA3.1(+)/CD122 (constructed by Nanjing Novoacine Biotechnology Co., Ltd, Uniprot P14784 1Met-551Val constructed into plasmid pcDNA3.1(+)), pcDNA3.1/puro/CD132 (constructed by Nanjing Novoacine Biotechnology Co., Ltd, UniprotP31785 1Met-551Thr constructed into plasmid pcDNA3.1/zeo), pCMV/JAK3 (Sino Biological), and PGL4.52/STAT5RE (Promega) were transiently transferred into 293EC18 cells, and the obtained cells were named 293EC18/αβγ/JAK3/STAT5 cells. The transfected cells were incubated at 37°C and 5% CO2 for another 6 h.
Each IL2 mutant was diluted 4-fold in a gradient manner using PBS buffer, with a total of 11 dilutions and a starting concentration of 65.2 nM. In the above cell culture plates, 50 µl/well of each of the serially diluted IL2 mutant samples was added in duplicate. Then, the cell culture plate was placed in an incubator at 37°C and 5% CO2 for overnight culture. The cell culture plates were kept at room temperature for 20 ± 5 minutes to equilibrate the plates to room temperature. Bio-Lite Luciferase Assay System reagents that have been mixed and equilibrated to room temperature were added to the cell culture plates to be tested at 100 µl/well, placed on a microplate shaker at 450 rpm to mix for 2 minutes, then allowed to stand at room temperature for 3 minutes, and the chemiluminescence value was detected with an enzyme plate reader.
as §2
According to the method of Example 3, each polyethylene glycol-modified mutant obtained in this example was assessed for the binding preference to the IL2 receptors by a reporter assay. Table 4 EC50 values for the activation of the IL-2αβγ triple receptor by PEG-IL-2 mutants as determined by a reporter gene assay.
Referring to Example 3, the phosphorylation of STAT5 was used to evaluate the ability of the PEG-modified IL-2 mutants having a non-natural amino acid mutation prepared in Example 14 to induce signal transduction via the IL-2 receptor. […]

[7] = female, first-cycle dosing 50 µg/kg s.c.
[8] = female, second-cycle dosing 400 µg/kg s.c.
[9] = male, first-cycle dosing 50 µg/kg s.c.
[10] = male, second-cycle dosing 400 µg/kg s.c.

## 60K-1PEG-IL2-N88R-N77C: IL2-N88R-N77C with 60 kDa PEG conjugated to the cysteine at position 77
[1]
  T1/2: 20.78 ± 1.92 h
Treg cells [2]
  activation peak of Treg proportion, time: 6 days
  increase in Treg proportion at peak: about 15 fold
[3]
  AUC inf: 392.06252 ± 33.89153 µg·h/mL
  AUClast: 380.55249 ± 34.19595 µg·h/mL
  CL: 2.56±0.22
  Cmax: 6633.54 ± 581.69 ng/mL
  MRT: 39.45 ± 0.44 h
  Tmax: 8 to 24 h
  mean half-life: 20.78 h
  mean residence time (MRT): 39.45 h
[4]; [7]
  AUC inf: 181.7098 µg·h/mL
  AUClast: 148.6109 µg·h/mL
  CL: 0.28
  Cmax: 701.0718 ng/mL
  MRT: 128.4211 h
  Tmax: 72 h
[4]; [8]
  AUC inf: 2158.472 µg·h/mL
  AUClast: 1360.931 µg·h/mL
  CL: 0.19
  Cmax: 10419.65 ng/mL
  MRT: 101.9 h
  Tmax: 8 h
[4]; [9]
  AUC inf: 213.0031 µg·h/mL
  AUClast: 157.7992 µg·h/mL
  CL: 0.23
  Cmax: 815.2866 ng/mL
  MRT: 135.9233 h
  Tmax: 48 h
[4]; [10]
  AUC inf: 2122.205 µg·h/mL
  AUClast: 1412.112 µg·h/mL
  CL: 0.19
  Cmax: 10199.77 ng/mL
  MRT: 100.7 h
  Tmax: 8 h
Treg cells [5]
  EC50: 35.1 nM
Treg cells [6]
  activation and proliferation of peripheral blood Treg cells: clear activation and proliferation

B1: 80k-1PEG-IL2-N88R-N33C: IL-2 mutant N88R, N33C with one 80k PEG conjugated to cysteine 33 (conjugate)
chain: APTSSSTKKTQLQLEHLLLDLQMILNGINNYKC(PEG 80 kDa)PKLTRMLTFKFYMPKKATELKHLQCLEEELKPLEEVLNLAQSKNFHLRPRDLISRINVIVLELKGSETTFMCEYADETATIVEFLNRWITFSQSIISTLT
IL-2αβγ triple receptor
  activation of the IL-2Rαβγ triple receptor compared with the control IL2-N88R: even stronger activation
IL-2βγ dual receptor; Figure 1, concentration of 65.2 nM
  activation effect on the IL-2Rβγ dual receptor compared with control IL-2 N88R: lower activation effects
IL-2βγ dual receptor; Figure 2, all concentrations
  activation effect on / affinity to IL-2Rβγ dual receptor compared with control IL-2 N88R: further reduced the affinity to IL-2Rβγ
